Data from US20070078092A1 (CUREGENICS, published 2007).
Square brackets hold non-standard residues; d marks the D form. Ends that are not written are not given here. * marks the point of attachment. Cholesteryloxycarbonyl = CC(C)CCC[C@@H](C)[C@H]1CC[C@H]2[C@@H]3CC=C4C[C@@H](OC(=O)*)CC[C@]4(C)[C@H]3CC[C@]12C; Myristoyl = CCCCCCCCCCCCCC(=O)*; hLeu = CC(C)CC[C@H](N)C(=O)O; Orn = NCCC[C@H](N)C(=O)O; Nva = CCC[C@H](N)C(=O)O; Dap = NC[C@H](N)C(=O)O

B1: PTR 6252 (peptide)
peptide: [dR][dR][dR][dR][dR][dR][dR][dR][dR]GRPR[Nva]YA[hLeu]-NH2
modifications: N-terminus assumed
SMILES: CCC[C@H](NC(=O)[C@H](CCCNC(=N)N)NC(=O)[C@@H]1CCCN1C(=O)[C@H](CCCNC(=N)N)NC(=O)CNC(=O)[C@@H](CCCNC(=N)N)NC(=O)[C@@H](CCCNC(=N)N)NC(=O)[C@@H](CCCNC(=N)N)NC(=O)[C@@H](CCCNC(=N)N)NC(=O)[C@@H](CCCNC(=N)N)NC(=O)[C@@H](CCCNC(=N)N)NC(=O)[C@@H](CCCNC(=N)N)NC(=O)[C@@H](CCCNC(=N)N)NC(=O)[C@H](N)CCCNC(=N)N)C(=O)N[C@@H](Cc1ccc(O)cc1)C(=O)N[C@@H](C)C(=O)N[C@@H](CCC(C)C)C(N)=O
B2: PTR 6164 (peptide)
peptide: Cholesteryloxycarbonyl-RPR[Nva]Y[Dap][hLeu]-NH2
SMILES: CCC[C@H](NC(=O)[C@H](CCCNC(=N)N)NC(=O)[C@@H]1CCCN1C(=O)[C@H](CCCNC(=N)N)NC(=O)O[C@H]1CC[C@@]2(C)C(=CC[C@H]3[C@@H]4CC[C@H]([C@H](C)CCCC(C)C)[C@@]4(C)CC[C@@H]32)C1)C(=O)N[C@@H](Cc1ccc(O)cc1)C(=O)N[C@@H](CN)C(=O)N[C@@H](CCC(C)C)C(N)=O
B3: PTR 6180 (peptide)
peptide: Myristoyl-GRPR[Nva]Y[Dap][hLeu]-NH2
SMILES: CCCCCCCCCCCCCC(=O)NCC(=O)N[C@@H](CCCNC(=N)N)C(=O)N1CCC[C@H]1C(=O)N[C@@H](CCCNC(=N)N)C(=O)N[C@@H](CCC)C(=O)N[C@@H](Cc1ccc(O)cc1)C(=O)N[C@@H](CN)C(=O)N[C@@H](CCC(C)C)C(N)=O
B4: PTR 6196 (peptide)
peptide: Cholesteryloxycarbonyl-RPR[Nva]YA[hLeu]-NH2
SMILES: CCC[C@H](NC(=O)[C@H](CCCNC(=N)N)NC(=O)[C@@H]1CCCN1C(=O)[C@H](CCCNC(=N)N)NC(=O)O[C@H]1CC[C@@]2(C)C(=CC[C@H]3[C@@H]4CC[C@H]([C@H](C)CCCC(C)C)[C@@]4(C)CC[C@@H]32)C1)C(=O)N[C@@H](Cc1ccc(O)cc1)C(=O)N[C@@H](C)C(=O)N[C@@H](CCC(C)C)C(N)=O
B5: PTR 6198 (peptide)
peptide: Cholesteryloxycarbonyl-GRPR[Nva]YA[hLeu]-NH2
SMILES: CCC[C@H](NC(=O)[C@H](CCCNC(=N)N)NC(=O)[C@@H]1CCCN1C(=O)[C@H](CCCNC(=N)N)NC(=O)CNC(=O)O[C@H]1CC[C@@]2(C)C(=CC[C@H]3[C@@H]4CC[C@H]([C@H](C)CCCC(C)C)[C@@]4(C)CC[C@@H]32)C1)C(=O)N[C@@H](Cc1ccc(O)cc1)C(=O)N[C@@H](C)C(=O)N[C@@H](CCC(C)C)C(N)=O
B6: PTR 6244 (peptide)
peptide: {Vitamin E succinate}-RPR[Nva]Y[Dap][hLeu]-NH2
B7: PTR 6260 (peptide)
peptide: Cholesteryloxycarbonyl-RPR[Orn]E(Aminoethylsulfonamidoisoquinoline)SF-NH2
B8: MPS ab60025-82 (peptide)
peptide: [dK][dK][dK][dK][dK][dK][dK][dK]RPR[Nva]Y[Dap][hLeu]-NH2
modifications: N-terminus assumed
SMILES: CCC[C@H](NC(=O)[C@H](CCCNC(=N)N)NC(=O)[C@@H]1CCCN1C(=O)[C@H](CCCNC(=N)N)NC(=O)[C@@H](CCCCN)NC(=O)[C@@H](CCCCN)NC(=O)[C@@H](CCCCN)NC(=O)[C@@H](CCCCN)NC(=O)[C@@H](CCCCN)NC(=O)[C@@H](CCCCN)NC(=O)[C@@H](CCCCN)NC(=O)[C@H](N)CCCCN)C(=O)N[C@@H](Cc1ccc(O)cc1)C(=O)N[C@@H](CN)C(=O)N[C@@H](CCC(C)C)C(N)=O
B9: MPS ab60025-50 (peptide)
peptide: [dK][dK][dK][dK][dK][dK][dK][dK][dK][dK]RPR[Nva]Y[Dap][hLeu]-NH2
modifications: N-terminus assumed
SMILES: CCC[C@H](NC(=O)[C@H](CCCNC(=N)N)NC(=O)[C@@H]1CCCN1C(=O)[C@H](CCCNC(=N)N)NC(=O)[C@@H](CCCCN)NC(=O)[C@@H](CCCCN)NC(=O)[C@@H](CCCCN)NC(=O)[C@@H](CCCCN)NC(=O)[C@@H](CCCCN)NC(=O)[C@@H](CCCCN)NC(=O)[C@@H](CCCCN)NC(=O)[C@@H](CCCCN)NC(=O)[C@@H](CCCCN)NC(=O)[C@H](N)CCCCN)C(=O)N[C@@H](Cc1ccc(O)cc1)C(=O)N[C@@H](CN)C(=O)N[C@@H](CCC(C)C)C(N)=O
B10: MPS ab60025-94 (peptide)
peptide: [dR][dR][dR][dR][dR][dR][dR]RPR[Nva]Y[Dap][hLeu]-NH2
modifications: N-terminus assumed
SMILES: CCC[C@H](NC(=O)[C@H](CCCNC(=N)N)NC(=O)[C@@H]1CCCN1C(=O)[C@H](CCCNC(=N)N)NC(=O)[C@@H](CCCNC(=N)N)NC(=O)[C@@H](CCCNC(=N)N)NC(=O)[C@@H](CCCNC(=N)N)NC(=O)[C@@H](CCCNC(=N)N)NC(=O)[C@@H](CCCNC(=N)N)NC(=O)[C@@H](CCCNC(=N)N)NC(=O)[C@H](N)CCCNC(=N)N)C(=O)N[C@@H](Cc1ccc(O)cc1)C(=O)N[C@@H](CN)C(=O)N[C@@H](CCC(C)C)C(N)=O
B11: MPS ab60025-2 (peptide)
peptide: RQIKIWFQNRRMKWKKRPRXYXX
modifications: Nva, Dap, Hol of the 6154 part
B12: PTR 6154 (peptide)
peptide: RPR[Nva]Y[Dap][hLeu]-NH2
modifications: N-terminus assumed
SMILES: CCC[C@H](NC(=O)[C@H](CCCNC(=N)N)NC(=O)[C@@H]1CCCN1C(=O)[C@@H](N)CCCNC(=N)N)C(=O)N[C@@H](Cc1ccc(O)cc1)C(=O)N[C@@H](CN)C(=O)N[C@@H](CCC(C)C)C(N)=O
B13: PTR 6132 (peptide)
peptide: RPR[Orn]E(NH‑(CH2)2‑NH‑SO2‑Isoquinoline)SF
B14: PTR 6184 (peptide)
peptide: RPR[Nva]YA[hLeu]-NH2
modifications: N-terminus assumed
SMILES: CCC[C@H](NC(=O)[C@H](CCCNC(=N)N)NC(=O)[C@@H]1CCCN1C(=O)[C@@H](N)CCCNC(=N)N)C(=O)N[C@@H](Cc1ccc(O)cc1)C(=O)N[C@@H](C)C(=O)N[C@@H](CCC(C)C)C(N)=O

Each binder was assayed against protein kinase B (PKB) (assay: cell-based or functional assay).

Binder | IC50, kinase assay PKB
B1 | 800 nM
B2 | 700 nM
B3 | 900 nM
B4 | 500 nM
B5 | 500 nM
B6 | 3000 nM
B7 | 1000 nM

The binders below were run against protein kinase A (PKA) (assay: cell-based or functional assay).

Binder | IC50, kinase assay PKA
B1 | 10000 nM
B2 | 10000 nM
B3 | 20000 nM
B4 | 5000 nM
B5 | 5000 nM
B6 | 10000 nM
B7 | > 5000 nM

Target: protein kinase B (PKB)
Assay: cell-based or functional assay
Remark: another data set of the same source

Binder | IC50, in vitro PKB inhibition
B8 | 400 nM
B9 | 80 nM
B10 | 400 nM
B1 | 800 nM
B11 | 1000 nM

Target: protein kinase B (PKB)
Assay: cell-based or functional assay
Remark: another data set of the same source

Binder | % Inhibition of PKB activity at 1 µM | % Inhibition of PKB activity at 10 µM
B8 | 78% | 92%
B9 | 93% | 98%
B10 | 76% | 92%
B1 | 65% | 93%
B11 | 60% | 92%

Target: protein kinase B (PKB)
Assay: cell-based or functional assay
Remark: another data set of the same source

Binder | IC50, PKB kinase inhibition
B12 | 900 nM
B13 | 20 nM
B14 | 300 nM

Target: protein kinase A (PKA)
Assay: cell-based or functional assay
Remark: another data set of the same source

Binder | IC50, PKA kinase inhibition
B12 | > 50000 nM
B13 | 12 nM
B14 | > 50000 nM
